Experimental data as given in patent publication US20240190991A1, “COMBINATION THERAPY WITH AN ANTI-CA19-9 ANTIBODY AND FOLFIRINOX IN THE TREATMENT OF CANCER” (BioNTech SE, priority 2021, published 2024).

Test system: locally-advanced or metastatic pancreatic ductal adenocarcinoma (PDAC)
Assay: Clinical study of MVT-5873 as monotherapy or combined with FOLFIRINOX in pancreatic cancer patients
Type: in vivo, human
Details: Group C patients; MVT 5873 0.5 mg/kg in combination with mFOLFIRINOX; one, two or six cycles of therapy
Method: A clinical study is performed comparing the therapeutic effect of the use of the MVT-5873 monoclonal antibody (5B1 monoclonal antibody) as a monotherapy or in combination with FOLFIRINOX in the treatment of pancreatic cancer, in patients with locally-advanced or metastatic pancreatic ductal adenocarcinoma (PDAC). Patients having other CA19-9-positive malignancies may also be included in the study.
The patients will be subdivided into the following groups: • Group A: A Q4 week monotherapy schedule employing a single dose of MVT 5873 administered 7 days prior to Cycle 1 Day 1 • Group B: A Q2 week monotherapy schedule employing a single dose of MVT 5873 administered 7 days prior to Cycle 1 Day 1 • Group C: A Q2 week schedule in combination with mFOLFIRINOX mFOLFIRINOX is a dose amount of FOLFIRINOX, in which FOLFIRINOX is administered at a dose of 65 mg/m^2 oxaliplatin, 400 mg/m^2 leucovorin, 150 mg/m^2 irinotecan, and 1200 mg/m^2 5-fluorouracil.
In certain groups, the patients, after completing the combination therapy will be administered the antibody having the ability to bind CA 19-9 as a monotherapy.
The administration schedule for Group C is depicted in FIG. 1.
A number of patients in Group C have been administered MVT 5873 at 0.5 mg/kg in combination with mFOLFIRINOX (65 mg/m^2 oxaliplatin, 400 mg/m^2 leucovorin, 150 mg/m^2 irinotecan, and 1200 mg/m^2 5-fluorouracil). […]

**Q.** Which dose limiting toxicities does the source give for “MVT 5873: fully human IgG1 monoclonal antibody that targets sialyl Lewis A (sLe^a), an epitope on CA19-9; VH and VL of SEQ ID NO: 2 and 4” here?
**A.** No dose limiting toxicities
